Our source for the binding result, Ki and Kd values is US20220402980A1 (OSPEDALE SAN RAFFAELE S R L, published 2022).

As usually defined, the Ki is a dissociation constant, usually derived from enzyme kinetics or from competition with a known ligand. Broadly, the Kd is the constant that tells how readily two partners part at equilibrium.

The target in one test is T1, bovine serum albumin (bovine, UniProt P02769 25-607).
T1 construct: Negative control in the STD NMR experiments; also called BSA
Description: 2D-STD-1H-15N-HSQC NMR, negative control.

For test [1], the target named is T2, recombinant human αvβ6 extracellular domain (R&D Systems) (human, UniProt P06756 31-992; P18564 22-709).
T2 construct: extracellular domain; Bought; also called recombinant extracellular αvβ6; purified αvβ6
In words: STD NMR, 0.5 mM peptide with 4 µM αvβ6.

Test [2] has as its target T2, recombinant human αvβ6 extracellular …. In words: competitive binding assay on αvβ6-coated plates, isoDGR/STV-HRP probe.
The target is the same in test [3]. Description: competitive αvβ6 binding assay, isoDGR-HRP probe.
The target in test [4] is T3, wild-type human integrin α5β1 (octyl β-D-glucopyranoside preparation) (human, UniProt P08648 42-1049; P05556 21-798).
T3 construct: From Immunological Sciences; also called a5p1; asp1
Description: competitive binding assay on α5β1-coated plates, isoDGR/STV-HRP probe.

Test [5] concerns the target T4, αvβ8 integrin (purified, coated on microtiter plates) (UniProt P06756 31-992; P26012 43-684).
T4 construct: The Reagents section names no source for αvβ8; also called avs8
In words: competitive binding assay on αvβ8-coated plates, isoDGR/STV-HRP probe.

In test [6] the target is T5, wild-type human integrin αvβ3 (octyl β-D-glucopyranoside preparation) (human, UniProt P06756 31-1048; P05106 27-788).
T5 construct: From Immunological Sciences
Description: competitive binding assay on αvβ3-coated plates, isoDGR/STV-HRP probe.

Test [7] addresses T2, recombinant human αvβ6 extracellular …. Description: competitive binding assay on αvβ6-coated plates, isoDGR/STV-HRP probe. This is another data set of the same source.
In test [8] the target is T6, wild-type human integrin αvβ5 (octyl β-D-glucopyranoside preparation) (human, UniProt P06756 31-1048; P18084 24-799).
T6 construct: From Immunological Sciences
In words: competitive binding assay on αvβ5-coated plates, isoDGR/STV-HRP probe.

The target of test [9] is T2, recombinant human αvβ6 extracellular …. Description: direct binding to integrin-coated microtiter plates, one site specific binding fit.
Test [10] concerns the target T4, αvβ8 integrin (purified, coated on …). The test is described as above.
Test [11] addresses T3, wild-type human integrin α5β1 (octyl …). The description is as above.
For test [12], the target named is T6, wild-type human integrin αvβ5 (octyl …). The description is as above.
The target in test [13] is T5, wild-type human integrin αvβ3 (octyl …). The test is described as above.
Test [14] has as its target T2, recombinant human αvβ6 extracellular …. In words: direct binding to integrin-coated plates, near-infrared fluorescence.
In test [15] the target is T4, αvβ8 integrin (purified, coated on …). Described as above.

Read-outs that look alike come from different tables or passages of the source. *1 amine or outer side, *2 acyl side, *3 side chain or, on linkers, in order; H or OH if unused. Bridges are numbered along the chain shown (N, C = ends). Where no end group is shown, it is not given here. [ ]: non-standard residue; d: D form. The star is where a group is joined. maleimide‑NOTA = 1,4,7-triazacyclononane-1,4-bis-acetic acid-7-maleimidoethylacetamide; Biotin = O=C1N[C@H]2[C@H](CS[C@H]2CCCCC(=O)*)N1; Lys(N3) = [N-]=[N+]=NCCCC[C@H](N)C(=O)O; βAsp = O=C(O)[C@H](CC(=O)[*:2])N[*:1]; hSer(lactone) = O=C1OCC[C@@H]1N*; Pra = C#CC[C@H](N)C(=O)O

T2 sequence (P06756 31-992, chain 1 of 2): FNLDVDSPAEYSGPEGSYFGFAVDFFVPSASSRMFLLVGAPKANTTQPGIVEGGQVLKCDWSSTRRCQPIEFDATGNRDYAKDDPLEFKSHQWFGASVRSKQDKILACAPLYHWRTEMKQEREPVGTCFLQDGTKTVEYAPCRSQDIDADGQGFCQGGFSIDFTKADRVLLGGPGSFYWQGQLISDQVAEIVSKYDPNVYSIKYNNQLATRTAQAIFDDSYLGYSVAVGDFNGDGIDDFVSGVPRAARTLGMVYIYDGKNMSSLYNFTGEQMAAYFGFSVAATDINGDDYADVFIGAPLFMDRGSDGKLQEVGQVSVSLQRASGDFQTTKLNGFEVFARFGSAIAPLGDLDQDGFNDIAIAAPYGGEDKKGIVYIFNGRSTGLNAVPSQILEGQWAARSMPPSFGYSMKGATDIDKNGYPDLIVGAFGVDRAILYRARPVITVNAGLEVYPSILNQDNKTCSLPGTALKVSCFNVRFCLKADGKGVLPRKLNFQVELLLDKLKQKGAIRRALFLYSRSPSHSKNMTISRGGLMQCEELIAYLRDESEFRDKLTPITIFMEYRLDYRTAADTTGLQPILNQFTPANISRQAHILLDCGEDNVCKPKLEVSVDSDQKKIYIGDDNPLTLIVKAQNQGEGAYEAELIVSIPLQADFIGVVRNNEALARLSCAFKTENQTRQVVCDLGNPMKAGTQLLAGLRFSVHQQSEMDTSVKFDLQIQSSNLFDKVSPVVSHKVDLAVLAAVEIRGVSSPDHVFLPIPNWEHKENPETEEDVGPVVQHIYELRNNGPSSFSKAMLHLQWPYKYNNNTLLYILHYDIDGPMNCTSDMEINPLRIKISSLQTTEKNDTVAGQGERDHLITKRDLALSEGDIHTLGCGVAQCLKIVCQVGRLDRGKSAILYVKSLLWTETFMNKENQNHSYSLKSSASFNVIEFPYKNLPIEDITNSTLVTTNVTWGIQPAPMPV
T2 sequence (P18564 22-709, chain 2 of 2): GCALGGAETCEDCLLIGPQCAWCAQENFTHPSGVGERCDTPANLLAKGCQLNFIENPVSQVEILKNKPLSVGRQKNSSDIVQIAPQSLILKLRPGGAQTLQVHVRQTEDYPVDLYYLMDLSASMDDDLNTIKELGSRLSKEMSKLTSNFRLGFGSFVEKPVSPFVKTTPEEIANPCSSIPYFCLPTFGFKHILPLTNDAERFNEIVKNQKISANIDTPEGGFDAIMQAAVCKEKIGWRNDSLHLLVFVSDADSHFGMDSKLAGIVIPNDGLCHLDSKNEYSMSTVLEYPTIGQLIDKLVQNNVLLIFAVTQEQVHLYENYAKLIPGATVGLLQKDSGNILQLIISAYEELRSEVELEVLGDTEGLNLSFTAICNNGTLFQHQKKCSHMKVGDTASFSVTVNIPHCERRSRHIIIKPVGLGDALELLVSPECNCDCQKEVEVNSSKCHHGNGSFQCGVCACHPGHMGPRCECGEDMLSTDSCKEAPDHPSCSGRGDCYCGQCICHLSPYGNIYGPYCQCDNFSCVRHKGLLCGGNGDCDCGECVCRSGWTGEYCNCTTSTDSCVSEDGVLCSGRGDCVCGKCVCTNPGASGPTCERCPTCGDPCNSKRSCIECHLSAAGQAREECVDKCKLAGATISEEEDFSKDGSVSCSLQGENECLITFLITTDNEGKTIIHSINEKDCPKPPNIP
T4 sequence (P06756 31-992, chain 1 of 2): as the sequence (P06756 31-992, chain 1 of 2) above
T4 sequence (P26012 43-684, chain 2 of 2): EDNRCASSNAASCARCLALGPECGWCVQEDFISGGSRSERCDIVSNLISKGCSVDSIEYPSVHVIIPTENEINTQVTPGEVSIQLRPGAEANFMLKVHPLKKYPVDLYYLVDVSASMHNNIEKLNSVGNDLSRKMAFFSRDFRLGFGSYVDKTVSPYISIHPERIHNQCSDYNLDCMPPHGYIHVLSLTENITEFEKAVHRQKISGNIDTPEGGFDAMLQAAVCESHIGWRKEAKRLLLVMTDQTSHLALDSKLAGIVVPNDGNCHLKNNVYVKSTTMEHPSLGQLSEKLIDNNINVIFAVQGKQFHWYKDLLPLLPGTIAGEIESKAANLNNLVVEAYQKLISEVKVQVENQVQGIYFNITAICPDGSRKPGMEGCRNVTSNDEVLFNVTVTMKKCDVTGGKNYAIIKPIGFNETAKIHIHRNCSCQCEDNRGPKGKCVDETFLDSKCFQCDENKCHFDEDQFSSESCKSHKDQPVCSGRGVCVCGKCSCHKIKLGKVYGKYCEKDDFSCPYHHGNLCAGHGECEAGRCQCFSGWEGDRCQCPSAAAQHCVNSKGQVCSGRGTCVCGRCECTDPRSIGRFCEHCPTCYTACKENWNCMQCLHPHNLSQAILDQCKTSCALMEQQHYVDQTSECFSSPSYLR
T3 sequence (P08648 42-1049, chain 1 of 2): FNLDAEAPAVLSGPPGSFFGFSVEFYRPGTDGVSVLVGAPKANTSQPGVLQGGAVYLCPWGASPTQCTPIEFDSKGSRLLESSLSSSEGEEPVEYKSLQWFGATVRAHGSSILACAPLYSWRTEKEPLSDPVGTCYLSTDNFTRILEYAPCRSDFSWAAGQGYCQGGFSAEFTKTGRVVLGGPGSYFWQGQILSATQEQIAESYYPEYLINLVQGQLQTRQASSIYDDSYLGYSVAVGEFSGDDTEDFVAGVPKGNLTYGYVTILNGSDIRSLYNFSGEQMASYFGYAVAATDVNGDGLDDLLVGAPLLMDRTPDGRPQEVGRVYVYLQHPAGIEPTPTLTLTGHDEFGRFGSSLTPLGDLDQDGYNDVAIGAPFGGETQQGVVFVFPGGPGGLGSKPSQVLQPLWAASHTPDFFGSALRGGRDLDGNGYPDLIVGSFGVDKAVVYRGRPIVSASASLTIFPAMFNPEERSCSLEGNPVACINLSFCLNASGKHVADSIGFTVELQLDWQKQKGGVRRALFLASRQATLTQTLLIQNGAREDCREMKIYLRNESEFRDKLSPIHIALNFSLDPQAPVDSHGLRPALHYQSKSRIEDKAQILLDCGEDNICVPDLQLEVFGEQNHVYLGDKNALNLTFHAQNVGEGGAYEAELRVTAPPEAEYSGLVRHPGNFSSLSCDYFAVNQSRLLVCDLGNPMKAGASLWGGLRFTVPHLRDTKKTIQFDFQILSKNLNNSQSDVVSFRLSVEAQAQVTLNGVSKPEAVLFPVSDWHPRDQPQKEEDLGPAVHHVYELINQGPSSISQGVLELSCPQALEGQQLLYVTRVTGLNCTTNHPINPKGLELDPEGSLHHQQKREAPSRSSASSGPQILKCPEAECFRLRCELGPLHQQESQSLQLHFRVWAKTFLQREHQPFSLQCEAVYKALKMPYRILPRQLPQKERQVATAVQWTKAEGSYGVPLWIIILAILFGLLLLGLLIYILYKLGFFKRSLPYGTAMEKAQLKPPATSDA
T3 sequence (P05556 21-798, chain 2 of 2): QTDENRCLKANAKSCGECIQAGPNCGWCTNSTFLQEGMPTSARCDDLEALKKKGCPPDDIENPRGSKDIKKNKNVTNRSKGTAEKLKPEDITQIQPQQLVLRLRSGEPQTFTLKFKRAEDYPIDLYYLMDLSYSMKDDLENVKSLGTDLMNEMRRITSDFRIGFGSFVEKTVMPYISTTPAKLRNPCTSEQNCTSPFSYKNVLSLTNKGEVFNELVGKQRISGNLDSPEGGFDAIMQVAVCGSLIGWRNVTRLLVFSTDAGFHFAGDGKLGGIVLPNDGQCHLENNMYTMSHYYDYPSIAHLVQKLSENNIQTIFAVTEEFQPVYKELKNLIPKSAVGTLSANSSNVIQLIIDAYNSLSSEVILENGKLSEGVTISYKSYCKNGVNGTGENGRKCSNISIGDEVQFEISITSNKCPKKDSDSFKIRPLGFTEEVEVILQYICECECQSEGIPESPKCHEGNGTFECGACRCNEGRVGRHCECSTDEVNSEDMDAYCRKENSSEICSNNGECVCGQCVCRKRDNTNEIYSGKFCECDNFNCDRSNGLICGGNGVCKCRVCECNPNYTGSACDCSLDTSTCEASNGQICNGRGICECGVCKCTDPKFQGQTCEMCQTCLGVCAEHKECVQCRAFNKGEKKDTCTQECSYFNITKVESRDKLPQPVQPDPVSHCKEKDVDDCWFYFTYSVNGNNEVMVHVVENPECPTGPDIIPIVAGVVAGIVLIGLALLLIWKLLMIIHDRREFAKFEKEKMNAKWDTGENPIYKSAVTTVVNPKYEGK
T1 sequence (P02769 25-607 limits assumed): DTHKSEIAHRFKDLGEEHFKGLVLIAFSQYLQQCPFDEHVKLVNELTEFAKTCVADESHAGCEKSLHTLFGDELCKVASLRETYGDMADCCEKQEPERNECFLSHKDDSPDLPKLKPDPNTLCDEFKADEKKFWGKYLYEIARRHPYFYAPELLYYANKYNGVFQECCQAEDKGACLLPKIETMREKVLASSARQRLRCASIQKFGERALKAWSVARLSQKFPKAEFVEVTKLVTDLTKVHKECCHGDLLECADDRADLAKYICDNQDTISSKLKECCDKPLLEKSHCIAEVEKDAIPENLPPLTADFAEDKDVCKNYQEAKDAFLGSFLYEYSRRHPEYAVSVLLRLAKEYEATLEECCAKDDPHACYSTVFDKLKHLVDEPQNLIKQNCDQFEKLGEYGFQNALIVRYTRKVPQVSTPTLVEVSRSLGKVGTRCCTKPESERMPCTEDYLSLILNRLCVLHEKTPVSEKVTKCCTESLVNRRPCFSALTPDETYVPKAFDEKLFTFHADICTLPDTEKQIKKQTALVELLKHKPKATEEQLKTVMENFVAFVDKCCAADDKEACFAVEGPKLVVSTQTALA

B1: recombinant 13C/15N peptide 1 (peptide)
peptide: FETLRGDERILSILRHQNLLKELQD-{hSer(lactone)}
modifications: also: 13C/15N isotope labelled
notes: Used in the 2D-STD NMR experiments; also called recombinant peptide 1; 15N labelled peptide 1
As to B1, the results for the binding result (with bovine serum albumin; in [1]) were “no binding” and “binds”, respectively.
CFETLRGDLRILSILR[Pra]QNL[Lys(N3)]KELQD-NH2 (triazole 17-21, also called CgA38-63-derived peptide) [peptide 5a]: in test [2], the Ki was 1.5 nM.
With C(maleimide‑NOTA)FETLRGEERILSILRHQNLLKELQD (Negative control conjugate) [NOTA-2a (peptide 2a coupled to maleimide-NOTA)], the binding result in [3] is listed as “no binding”.

B2: peptide 3 (peptide)
peptide: FETLRGDERILSILR-NH2
notes: Made by Fmoc-SPPS on a Rink-amide resin; also called compound 3
Take B2: the Ki in test [4] turned out to be 10100 nM; in test [5], 31200 nM; in test [6], 1250 nM; in test [7], 277 nM; in [8] it was 2040 nM.
For Ac-C[βAsp]GRCGVRSSSRTPSDK(Biotin)Y (also: in complex with streptavidin-peroxidase conjugate), the Kd in [9] was 1.4 nM; in test [10] it was 1.6 nM; in [11], 1.3 nM; in test [12], 1.7 nM; in test [13], 1.3 nM.
Turning to C(maleimide‑IRDye 800CW)FETLRGEERILSILRHQNLLKELQD (RGE control conjugate) [2a-IRDye (peptide 2a coupled via Cys to maleimide-IRDye 800CW)], the binding result in test [14] and in test [15] was “no binding (tested: range 0.01-100 nM)” throughout.

B3: peptide 1 (CgA-derived peptide, residues 39-63), synthetic (peptide)
peptide: FETLRGDERILSILRHQNLLKELQD
notes: Synthetic peptide bought from Biomatik; no terminal modification is stated for it; also called compound 1
Regarding B3, the Ki in test [4] worked out at 9210 nM; in test [5] it was 7660 nM; in test [6] it was 2190 nM; in test [7], 15.5 nM; in test [8], 3600 nM.
